For this assay, the target named is T1, PRMT-5His6 (C. elegans, UniProt P46580 1-734).
T1 construct: C. elegans protein arginine methyltransferase PRMT-5, open reading frame C34E10.5, a protein of 734 amino acids; cDNA of prmt-5 cloned into pET21a; also called purified PRMT-5His6 protein; recombinant PRMT-5
Briefly: pull-down; GST-CEP-1 or GST immobilised on glutathione sepharose beads, incubated with purified PRMT-5His6 for more than 2 h; bound PRMT-5His6 detected by immunoblot with anti-PRMT-5 antibody. As to conditions: both partners purified. In general terms: In western blotting, separated proteins are transferred to a membrane and probed.

The source of these data is PMC2691592, “Caenorhabditis elegans Protein Arginine Methyltransferase PRMT-5 Negatively Regulates DNA Damage-Induced Apoptosis” (PLoS Genetics, 2009).

T1 sequence (P46580 whole entry): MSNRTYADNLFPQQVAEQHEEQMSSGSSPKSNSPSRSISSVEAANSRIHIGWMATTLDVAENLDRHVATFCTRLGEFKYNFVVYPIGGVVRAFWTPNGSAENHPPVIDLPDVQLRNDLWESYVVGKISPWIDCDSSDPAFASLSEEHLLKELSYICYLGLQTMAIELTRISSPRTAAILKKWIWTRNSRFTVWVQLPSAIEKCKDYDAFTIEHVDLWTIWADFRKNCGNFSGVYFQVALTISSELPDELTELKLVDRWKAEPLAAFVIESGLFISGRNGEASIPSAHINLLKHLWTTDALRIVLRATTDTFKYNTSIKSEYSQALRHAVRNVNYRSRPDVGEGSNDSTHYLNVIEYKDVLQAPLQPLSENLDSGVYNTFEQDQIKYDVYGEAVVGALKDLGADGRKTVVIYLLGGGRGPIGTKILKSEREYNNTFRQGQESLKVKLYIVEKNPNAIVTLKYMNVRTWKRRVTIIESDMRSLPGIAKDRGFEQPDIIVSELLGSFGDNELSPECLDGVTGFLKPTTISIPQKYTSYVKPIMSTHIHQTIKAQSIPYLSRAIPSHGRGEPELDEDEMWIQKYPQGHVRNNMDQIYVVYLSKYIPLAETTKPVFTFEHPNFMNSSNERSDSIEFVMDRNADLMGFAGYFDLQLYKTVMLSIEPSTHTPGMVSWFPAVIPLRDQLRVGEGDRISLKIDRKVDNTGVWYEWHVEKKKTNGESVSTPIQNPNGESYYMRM

B1: GST-CEP-1 (natural protein, C. elegans, UniProt Q20646 1-644, looked up)
chain: MEPDDSQLSDILKDARIPDSQDIGVNLTQNLSFDTVQKMIDGVFTPIFSQGTEDSLEKDILKTPGISTIYNGILGNGEETKKRTPKISDAFEPDLNTSGDVFDSDKSEDGLMNDESYLSNTTLSQVVLDSQKYEYLRVRTEEEQQLVIEKRARERFIRKSMKIAEETALSYENDGSRELSETMTQKVTQMDFTETNVPFDGNDESSNLAVRVQSDMNLNEDCEKWMEIDVLKQKVAKSSDMAFAISSEHEKYLWTKMGCLVPIQVKWKLDKRHFNSNLSLRIRFVKYDKKENVEYAIRNPRSDVMKCRSHTEREQHFPFDSFFYIRNSEHEFSYSAEKGSTFTLIMYPGAVQANFDIIFMCQEKCLDLDDRRKTMCLAVFLDDENGNEILHAYIKQVRIVAYPRRDWKNFCEREDAKQKDFRFPELPAYKKASLESINIKQEVNLENMFNVTNTTAQMEPSTSYSSPSNSNNRKRFLNECDSPNNDYTMMHRTPPVTGYASRLHGCVPPIETEHENCQSPSMKRSRCTNYSFRTLTLSTAEYTKVVEFLAREAKVPRYTWVPTQVVSHILPTEGLERFLTAIKAGHDSVLFNANGIYTMGDMIREFEKHNDIFERIGIDSSKLSKYYEAFLSFYRIQEAMKLPK
notes: C. elegans p53 homolog CEP-1; called the full-length GST-CEP-1 fusion protein; pGEX vectors put GST at the N-terminus; also called GST-CEP-1 fusion protein; full-length GST-CEP-1
In the case of B1, the binding result is on record as “binds”.
